Test results published in publication PMC11362571, “Multistage protective anti-CelTOS monoclonal antibodies with cross-species sterile protection against malaria” (Nature Communications, 2024).
“And” between values parts separate entries of the source, which are not always exact repeats. Identical values can stand only once.

B1: anti-CelTOS monoclonal antibody 7g7 (mouse IgG1) (antibody, V domains shown)
VH: EIQLQQSGPELVKPGASVKVSCKASGYSFTDYNMYWVKQSHGKSLEWIGYIDPYNGGTRYNQKFRDKATLTVDKSSSTAFMHLNSLTSEDSAVYYCARGYYYGNPLHFDVWGAGTTVTVSS
VL: QIVLTQSPAIMSASPGEKVTMTCSASSSVSYIHWYQQKSGTSPKRWIYDTSKLASGVPARFSGSGSGTSYSLTISSMEAEDAATYYCQQWISYPATFGAGTKLELK
notes: 7g7 heavy chain variable region; mouse IgG1 heavy chain constant region (IgG1 subclass by isotyping ELISA); 7g7 light chain variable region; light chain constant region; the light chain of the Fab is in PDB 8ULF; IgG1; raised in mice immunised with PvCelTOS; also called 7g7 mAb; 7g7 IgG; source: hybridoma culture, purified (Protein A resin)
B2: anti-CelTOS monoclonal antibody 4h12 (mouse IgG1) (antibody, V domains shown)
VH: QVQLQQSGPELVKPGASVKISCKASGYALSSSWLNWVKQRPGQGLEWIGRIFPGDGDTNYNGKFKGKATLTADKSSSTAYLQLSSLTSVDSAVYFCARGGTVVFDYWGQGTTLTVSS
VL: DIVMTQSHKFMSTSVGDRVNITCKASQDVGIAVAWYQQRPGQSPKLLIYWASKRHTGVHDRFTGTGSGTDFTLTISTVQSEDLADYFCQQYSNSLTFGAGTTLELS
notes: 4h12 heavy chain variable region; mouse IgG1 heavy chain constant region (IgG1 subclass by isotyping ELISA); 4h12 light chain variable region; light chain constant region; the light chain of the Fab is in PDB 8UKH; IgG1; raised in mice immunised with PfCelTOS; also called 4h12 mAb; 4h12 IgG; source: hybridoma culture, purified (Protein A resin)
B3: monoclonal antibody 7g7 (IgG) (antibody, V domains shown)
VH: EIQLQQSGPELVKPGASVKVSCKASGYSFTDYNMYWVKQSHGKSLEWIGYIDPYNGGTRYNQKFRDKATLTVDKSSSTAFMHLNSLTSEDSAVYYCARGYYYGNPLHFDVWGAGTTVTVSS
VL: QIVLTQSPAIMSASPGEKVTMTCSASSSVSYIHWYQQKSGTSPKRWIYDTSKLASGVPARFSGSGSGTSYSLTISSMEAEDAATYYCQQWISYPATFGAGTKLELK
notes: the Fab part of the heavy chain is in PDB 8ULF; mouse IgG1; the light chain is in PDB 8ULF; IgG1; raised by immunising mice with PvCelTOS; also called 7g7 mAb; source: mouse hybridoma supernatant, purified (protein A); copies: 2 + 2
B4: P. vivax CelTOS (Sal-1, PVX_123510, residue L36-D196) (natural protein, UniProt A5JZX5 36-196, looked up)
chain: LRGKSGSTASSSLEGGSEFSERIGNSLSSFLSESASLEVIGNELADNIANEIVSSLQKDSASFLQSGFDVKTQLKATAKKVLVEALKAALEPTEKIVASTIKPPRVSEDAYFLLGPVVKTLFNKVEDVLHKPIPDTIWEYESKGSLEEEEAEDEFSDELLD
notes: Cell-traversal protein for ookinetes and sporozoites (CelTOS), P. vivax Sal-1, PVX_123510, residues L36-D196; also called PvCelTOS; cell-traversal protein for ookinetes and sporozoites; source: E. coli BL21(DE3), pET28, purified (Ni resin, Superdex 200 increase)
B5: P. falciparum CelTOS (3D7, PF3D7_1216600, residue F25-D182) (natural protein, UniProt Q8I5P1 25-182, looked up)
chain: FRGNNGHNSSSSLYNGSQFIEQLNNSFTSAFLESQSMNKIGDDLAETISNELVSVLQKNSPTFLESSFDIKSEVKKHAKSMLKELIKVGLPSFENLVAENVKPPKVDPATYGIIVPVLTSLFNKVETAVGAKVSDEIWNYNSPDVSESEESLSDDFFD
notes: Cell-traversal protein for ookinetes and sporozoites (CelTOS), P. falciparum 3D7, PF3D7_1216600, residues F25-D182; Only S60-S116 are ordered in PDB 8UKH; also called PfCelTOS; cell-traversal protein for ookinetes and sporozoites; source: E. coli BL21(DE3), pET28, purified (Ni resin, Superdex 200 increase)
B6: monoclonal antibody 4h12 (IgG) (antibody, V domains shown)
VH: QVQLQQSGPELVKPGASVKISCKASGYALSSSWLNWVKQRPGQGLEWIGRIFPGDGDTNYNGKFKGKATLTADKSSSTAYLQLSSLTSVDSAVYFCARGGTVVFDYWGQGTTLTVSS
VL: DIVMTQSHKFMSTSVGDRVNITCKASQDVGIAVAWYQQRPGQSPKLLIYWASKRHTGVHDRFTGTGSGTDFTLTISTVQSEDLADYFCQQYSNSLTFGAGTTLELS
notes: the Fab part of the heavy chain is in PDB 8UKH; mouse IgG1; the light chain is in PDB 8UKH; IgG1; raised by immunising mice with PfCelTOS; also called 4h12 mAb; source: mouse hybridoma supernatant, purified (protein A); copies: 2 + 2

Legend:
[1] = biological target: T1, P. falciparum CelTOS (cell-traversal protein for ookinetes and sporozoites), 3D7, residues F25-D182 (Plasmodium falciparum 3D7); assay: BLI; mAb immobilised on anti-mouse IgG Fc capture (AMC) biosensors, 25 °C; CelTOS serially diluted in HBS-EP+ buffer as analyte; OctetRed96e; global fit, 1:1 model; each biological replicate the average of three repeats; conditions: both partners purified
T1 construct: PfCelTOS, P. falciparum 3D7, PF3D7_1216600, residues F25-D182; also called PfCelTOS; source: E. coli BL21(DE3), pET28, purified (nickel resin, Superdex 200 increase)
T1 chain: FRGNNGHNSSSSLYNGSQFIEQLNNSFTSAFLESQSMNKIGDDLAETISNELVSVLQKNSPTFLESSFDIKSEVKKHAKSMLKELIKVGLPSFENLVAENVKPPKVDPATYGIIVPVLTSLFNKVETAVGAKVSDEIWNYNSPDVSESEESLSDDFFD

[2] = biological target: T2, P. vivax CelTOS (cell-traversal protein for ookinetes and sporozoites), Sal-1, residues L36-D196 (Plasmodium vivax Sal-1); assay: as above; conditions: both partners purified
T2 construct: PvCelTOS, P. vivax Sal-1, PVX_123510, residues L36-D196; also called PvCelTOS; source: E. coli BL21(DE3), pET28, purified (nickel resin, Superdex 200 increase)
T2 chain: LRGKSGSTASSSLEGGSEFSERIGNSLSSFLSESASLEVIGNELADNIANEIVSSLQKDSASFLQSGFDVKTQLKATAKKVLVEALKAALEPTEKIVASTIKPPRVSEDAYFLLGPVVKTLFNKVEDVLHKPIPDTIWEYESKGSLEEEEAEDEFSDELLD

[3] = biological target: T3, P. vivax CelTOS (Sal-1, PVX_123510, residue L36-D196) (P. vivax, UniProt A5JZX5); assay: BLI; mAb immobilised on anti-mouse IgG Fc capture (AMC) biosensors at 25 °C; CelTOS serially diluted in HBS-EP+ buffer; global fit, 1:1 model; conditions: both partners purified
T3 construct: Cell-traversal protein for ookinetes and sporozoites (CelTOS), P. vivax Sal-1, PVX_123510, residues L36-D196; also called PvCelTOS; cell-traversal protein for ookinetes and sporozoites; source: E. coli BL21(DE3), pET28, purified (Ni resin, Superdex 200 increase)

[4] = biological target: T4, P. falciparum CelTOS (3D7, PF3D7_1216600, residue F25-D182) (P. falciparum, UniProt Q8I5P1); assay: as above; conditions: both partners purified
T4 construct: Cell-traversal protein for ookinetes and sporozoites (CelTOS), P. falciparum 3D7, PF3D7_1216600, residues F25-D182; Only S60-S116 are ordered in PDB 8UKH; also called PfCelTOS; cell-traversal protein for ookinetes and sporozoites; source: E. coli BL21(DE3), pET28, purified (Ni resin, Superdex 200 increase)

[5] = biological target: the molecule itself; assay: crystal structure; PvCelTOS with 7g7 Fab at a 1:1 ratio, complex purified by SEC; crystals at 17 °C, 0.1 M sodium acetate pH 4.5, 15% PEG 4000; 3.2 Å
[6] = biological target: the molecule itself; assay: crystal structure; PfCelTOS with 4h12 Fab at a ratio of 1.5:1, complex purified by SEC; crystals at 18 °C, 0.2 M lithium acetate, 21% PEG 3350; 3.5 Å

Binder | Kd [1] | koff [1] | kon [1] | Kd [2] | koff [2] | kon [2] | Kd [3] [nM] | Kd [4] [nM] | further results
B1 | 470 nM and 480 nM and 500 nM | 0.00279 s⁻¹ and 0.00293 s⁻¹ and 0.00281 s⁻¹ and 0.00284 s⁻¹ | 5900 M⁻¹ s⁻¹ and 6000 M⁻¹ s⁻¹ and 5600 M⁻¹ s⁻¹ and 5800 M⁻¹ s⁻¹ | 58.5 nM and 39.5 nM and 54.2 nM | 0.00309 s⁻¹ and 0.00368 s⁻¹ and 0.00227 s⁻¹ and 0.00332 s⁻¹ | 60200 M⁻¹ s⁻¹ and 62300 M⁻¹ s⁻¹ and 57000 M⁻¹ s⁻¹ and 61300 M⁻¹ s⁻¹ |  |  | 
B2 | 65.9 nM and 68 nM and 62.3 nM | 0.00569 s⁻¹ and 0.00609 s⁻¹ and 0.00521 s⁻¹ and 0.00566 s⁻¹ | 86300 M⁻¹ s⁻¹ and 89700 M⁻¹ s⁻¹ and 84700 M⁻¹ s⁻¹ and 86900 M⁻¹ s⁻¹ | 41600 nM and 57500 nM and 56300 nM | 0.0411 s⁻¹ and 0.0511 s⁻¹ and 0.0549 s⁻¹ and 0.0491 s⁻¹ | 1100 M⁻¹ s⁻¹ and 900 M⁻¹ s⁻¹ and 1000 M⁻¹ s⁻¹ |  |  | 
B3 |  |  |  |  |  |  | 50.7 | 480 | 
B4 |  |  |  |  |  |  |  |  | stoichiometry N [5]: 2
B5 |  |  |  |  |  |  |  |  | stoichiometry N [6]: 2
B6 |  |  |  |  |  |  | 51800 | 65.4 | 
